{"source": "paper PMC6669903", "about": "(Neuron, 2019)", "molecules": {"B1": {"name": "CaMKIIN: endogenous CaMKII inhibitor protein, cotransfected (protein)", "chain": "MSEILPYGEDKMGRFGADPEGSDLSFSCRLQDTNSFFAGNQAKRPPKLGQIGRAKRVVIEDDRIDDVLKGMGEKPPSGV"}}, "test_system": "Tiam1/CaMKII complex", "type": "cell-based", "conditions": "bath application (AP5, KN-93) or cotransfection (CaMKIIN)"}
{"molecule": "B1", "values": [{"measurement": "effect on Tiam1/CaMKII interaction after sLTP induction", "result": "blocked"}]}
